For 25 sequences, protein production results are on record in a protein production outcome set (Wang et al. 2014).

This data set is described as follows: label from the status in PepcDB records.
In the case of “MKGSLIVIVFFCVGCIMGVFNKFQFDTHTVSMYILYALMLQVGISIGSNKNLKAIISHLHPKMLLIPLGTITGTLLFSALASILLSQWSVFDCMAVGSGFAYYSLSSILITQFKEPTIGIQLATELGTIALLTNIFREMMALLGTPLIKKYFGKLAPISAAGVNSMDVLLPSISRYSGKEMIPIAILHGILIDISVPVFVSFFCNL”, the protein production entry is “failed”. On to “MVRLTPFYKKLSILFVEDEREVQEAALNVLERYIDHILVASDGEEALAIFKEKRPDIVITDIKMPVMDGLALTKEIKELGDTPVIVISAFDNEEFVSEAARLGVETYLLKPIDIQLLLASINRCIELLIRREEARQNRSLLREYKRIVDETAMICKIDLDKTITYANEAFCQISGYSKEELTGKIYRHMVSPRQDLSRLDGGLWVNVLRGKSWKGMIELLNKKGEPYFIQASMFPLFDADGKITELIALQFDITEHIKTKQILEKQNQKLEHIAHTDTLTGVWNRYKFNKILRQEIKCAKSSNHPFSLMLLDVDRFKTINDTHGHQFGDRVLKAITSTLKRQLKHKEAMIARWGGEEFIVLAQGYRLAQALELAERLRAAIEGMEFENIPITSSFGVTEFSPEDELDTLVRRADLALYTAKESGRNRIISY”, for which the protein production result was “failed”.

For the sequence “MTKFKGIIYASLGAAFFGISSIIAGLLFNRCSIEPGWLVTTRMLFSGLLLLAWLAITKHNIFSVWSSVKSSLRIVAFGIFGVLFAQSSFLLSVYYGNAAIATILQSLGPSIIIIILAIKSKAIPRRLDIIAIFLSLIGVFLLVTNGNIGELSFSASALVWGLLSALGVCAYTLIPCPLIKEHPPLSLVAWALLIGGVISNFLHPVTNLPKNFDQTDLLLVSLIVVVGTLLAYSLYINSLKYTEPHIVGMLGMLEPVTAILISTLFLGVSFLGFQQLGIFVVFLSLFLINFPAKKK”, the protein production entry is reported as “failed”.

For “MKETTKKIVSKRLTKVVALVLMCVICTSGVITVTALSRDVTVLDGDKMYGLTTLNANPDAVLDRLGIEVSPEDSIEFDEAAAKITIKRAFDVTVEVDGKAKTVTMTEGTVADALEASKVDLKEGDQVVPFAATSLVPDMEIKVARGVEVTVEADGKSVKVKVPVTATVEAAVAAADFTVGKDDVLSAEKTDTVSAGMTIKLDRVSYRETETTQEIPYESTQEETGELDLGDTQVKTAGENGARTIVTREKLVNGQVVETEEISSTVVKEPVNEVLLVGTREVETAPSYGAASTSGGVLVDHDGNQIAYTAVYTGSATAYTAPAGSFTATGRPAQYGNVAVNPDLIPYGSRLYICSPDGSYVYGYAVAADTGGALMSGSALVDVYFDTLSECYGFGRRTLSVYILA”, the protein production result is “failed”. Next, “MASSFLEEVDRLITLSGITFHASGTGTPELIKIYQDALGNEFPETYKLFLEKYGTLTFNGVSFYGISKRGLSAASIPDVKFATEQARTFGDINKEMIMIKNSGYGSIFSIDTSIIGSEGEPVIVETNLSFKDNTEKKVVANSFGEFLLEEIELSLTDLG”: “not failed”; “MMYRNQCTAKEKLMNRINEVSFAVNDVLLYLDTHPCCEEAISFYQECEQERQKLLKEYAQCYGPLTVDAALESGGDTWKWVQQPFPWETEGGCRLEHHHHHH”: “not failed”. The value for “MAYSLSPKKAGLPREVLKWLQSLDLSFFPKNVRRDFSNGYLVAEVFSWYFPRDFQMHSFDNGTSLAAKQSNWSQIEKFFVKQNISLVKEMIDGTIHCKPGAAELLVQEIYTILTNRSIQAIQRVEQGFTDKPYQDQLPMVARATASVSIKSNLSLTEVKAEPNIITNQRKVLAIIHRHLEQRKEERVQDPKRFNVKPTLGEQAVRLLAHQHEPNLQMNTSQAAC” was “failed”.

Take “MKENEYRFIMRIFVLVSFTAVLMIAVPFLDTIAFACAFAYMTEPFFNAVRRYAGRTLGAILSILMVTVPALSLVVLILSDVVEFLNTLNVPSLVDTTIQFVNYLGLQNIAQEDLNRILSELWTFLKPTINKMAEQIYGIPLLFIKGLITVFLTYYFLKDGHRFKDAIMPHVPEVYHVQTELFIRKLNEAYKNLFVVNALTSFTVGLISIAGFWAIGLPNPVTLGALSGILTLLPIVGGWTIYMPLSLYYIAVGMYTKAILLFGFGVIFLSLAPDFAIRPRLVNHESDIHPAIALVAFLMGPLALGVTGFALGPLIMGTFDAIFRVKNGKDSIINLK”: the protein production entry is listed as “failed”. Next, “MKEIKYLIPYVIFTSFSYYFAKNGVEQVSPSLFMGIRYLLSGLILLPFAKKLRITKNIILLAIMTSTSTAFWAYGLLYVSPAESAVLSYSMPIFSLPIAFLMVSERPSKVEIIGIVIGFTGVIIYGIPLMKGFTIFGAVLTISNAVFWASFTVFYRKLKEEDPFSTNAMQFLIGSLFLFALVPLDPSHNFSLSFAVDVIWMATLGGALQFILWNFMVKISAVNRITVLAFAVPIFTTILGVILSHEIPSGLAIAGVIIMFTGIFVSRLKGGISIVRETSG”: “failed”; “MDYFRLAEKFLREMHAKYMKRVSRPGNTPRPWFDFSEERLLSRLFEEMDELREAVEKEDWENLRDELLDVANFCMYLWGKLSVKNIYDKGEEQ”: “not failed”.

Take “MELKHGYYHLIAILTVAIWGLTFISTKVLINHGLTPQEIFFYRFLIAYLGIWVISPKRLFTNNWQDELWLVAGGIFGGSLYFFTENTALGITQASNVSFIICTAPLLTTILSLLFYKSEKASKGLIYGSLLALMGVGLIVFNGSFVLKISPIGDLLTLLAALSWAFYSLIIKKMAGRYPTIFITRKIFFYGVLTILPAFLLHPLHPDTAVLLQPAVLFNLLFLAVLASLICYVLWNVVLKQLGTVRASNYIYLNPLVTMIASFLILDEKITLVALGGAACIVCGVYWAEKK”: the protein production result is reported as “failed”. The value for “MDALVEDDICILNHEKAHKRDTVTPVSIYSGDESVASHFALVTAYEDIKKRLKDSEKENSLLKKRIRFLEEKLIARFEEETSSVGREQVNKAYHAYREVCIDRDNLKSKLDKMNKDNSESLKVLNEQLQSKEVELLQLRTEVETQQVMRNLNPPSSNWEVEKLSCDLKIHGLEQELELMRKECSDLKIELQKAKQTDPYQEDNLKSRDLQKLSISSDNMQHAYWELKREMSNLHLVTQVQAELLRKLKTSTAIKKGKSLFTGNH” was “not failed”. On to “QTQALFMNTRRAVFKERALRQALGEMFDFEWTNRALFSNSYLRSRSYYPNSEFAASGVPEGQEWLYLSPYRKQLPAQLFKQPFSLPTTEGRGIPRETLRHALGLLADAGWKLSGDRLLNKKGEPLRFEILLVNPSLERILQPYRENLASIGIDARLRTVDRAQYKQRLDQFDYDMILMTLPQTLSPGLEQWQYFHSSQVKVKGSKNYAGIANPVVDAMLNRLLGAHSRDEQVAAARALDRTLLWQYYSIPNWYLN”, for which the protein production result is “failed”. For the sequence “MAKQATTSRLLPESMDNSGEFWLHAFESLVADLPEPAFVVDADGDITHWNQAVENILGLPASEAVGMNAYDVFGTEGQDETLAQEVIRTGEPVREDEFRSAERPDGTMAHARAVAIPLMGPGGDAIGALELLIDFSDIVEQREALQSLQSQMATDVESAVGEIGDSAAAVTEQSDDIKQMAGEQSENLDEVQSEVSGFSATVEEIASSAEEVSSQSGEARELAEESVETAEETIERVEDATESAEQVASDSTELRGHIEEIDEFVEVINDIADQTNMLALNANIEAARSNSDSDGFAVVADEIKELADESKQHADEVERIVGEVREMADSTAENVEETTDAIQQALTDIETVLDNQQAIVDATSETEQGIGEVAAATDDQAASAEEIASMIDEIAQRAAEVSESIDELADANETQHRLAQDLEENVERVERRLAEIME”, the protein production entry is “failed”.

Turning to “MFKKWLTWPVFYELTEIYTAPLNIMWFVLGSAIAQYHLGTVNWLNVTLCLVSVFIFDLAVNVSDNYYDYRHARDREGYAQKTNPIGRLQLPVAGVGRLALGLYLISLIPGIWLVMRTGWLVLVLGLVGYVIGIFYTAGPYPINATPLCETVVALAIAFLIELTCVVVSTYGQHPLTWSIVGTTFLLCLPLTLIFFCLQLANNTADRDEDILNHRYTLAYYLGKPGSVRLIQAFLVIGGIWPLVNVLLGLAPVVTIWVVLLLPIMWQGMRPFFEVQDKKKTFITTVKSASLFFILYPVLFVLGTWL”, the protein production entry is “failed”.

For “MGEAATKSDRQQNQTRLWLNILRLHGLVFGDLNRQLLDETGLSLAKFDAMAQLARNPDGLSMGKLSGALKVTNGNVSGLVNRLIKDGMVVKAMSADDRRSFSAKLTDAGLTTFKQASEAHNRILAELLRAVSDQDMVEASAALRGILESMQTGASLD”, the protein production entry is on record as “not failed”. The value for “MAHPFLRTIFEVVITLYMLHNLYKVLGDDEMDLEEMSSFFNKRVNEYEEHMMNNVGGANQYYIETAKLIPRGKEINILDLGCGTGLELDEIFKINNTVRVTGIDLAENMLRKIKEKHKDKLDRLTLIVGDYFSCDIGEKVFDAALSVETLHHFNHEQKIKLYKKIVRSLKDNGVYIEADYMAPNQDYEDHCFNENKRIRLELGIKDGFYHYDTPCTVENQIKMLYKSGFKSVEKVFKAENTVILLAKK” was “failed”; that for “MHEIAPLSPAAAALADFQPDRGPAALNGAAVFCGFAPRPLDDGFTWADFGCGLGITASILAAANPQGRFFAIDADGQALAAGRALAKAAFLDNLTFLQADYTKPHDLDLPPLDFAVLGNVLCWLDGQERQALLSRLGTLLKPGGIVLATYDALPGAAALVPLRDLLFSVTAGQAANPVARARAAIDWLGAMRAAGIDFFRDNPALGPRLDALIERGPQALAGRFFGGTLRPLHFAQVNAEMAAQGLTFAGRAEAFLNLIDLAVPAALRPRLRAATSRAEVEATRDFIRNEDHRRDLYIKGAAPSDGAALTAFDDGRILGPAAAPGQANPEVSFGAVSLSFRGALFESLLAALDLGPRPVGELCASAALEGVPPGLIRDGLRLLTAGGLARPYARAADVAPAAPPVWPLRLPHPLNRALALTLGLGGPTVALASKVLGDGVVMDNRDALLLVALCDAGPEGAVERALAILADQAIPCGPATTQALTDRLSPLITDILPWLRVLGVVEG” was “failed”.

As for “GQTFAGVIRGVQSYGFFVQIEALQVEGLVHVSSPKDDWYEYRSRQQRLIGRKNRRQFGLGDRVEVEIRNVDYYRQQIDLGVLPLP”, the protein production entry was “failed”. Next, “MDFSQLGGLLDGMKKEFSQLEEKNKDTIHTSKSGGGMVSVSFNGLGELVDLQIDDSLLEDKEAMQIYLMSALNDGYKAVEENRKNLAFNMLGNFAKL”: “not failed”; “MYTYDSDKTQDGEENLKCSLEKLAKKIIQNAGDTNGNNSTPNSNDDFAQVFGRERPGRVRCVGLGPTPSSFIQNRTTTTLSKEQEVLSLNNRVRELEDKLVKMSDLEDKVDKMNEVIYISTCRRQQQLHYMTSTMDRRRWLQVEGNDFK”: “failed”. The value for “MAEIYRETEVTVARALRPPVPPKRASWIGTFFGVAADPRTYGALFYMLLSLLTGVFYFTWVVTGASLSVGMLILIIGVPLLVLFFGSVRVLSLVEGRVVETLLGVRMPRRPQHPGLQGGWLQRIGAMFTDARTWSTMLYFLLMLPLGILYFTVFCTLLSLSLGLAASPIAVLFDNVAVLTWDGVDVTSAWLTLPLCVVGVLLLFVTLHLARAFGTLHGMFAKQLLVKGGEAAA” was “failed”; that for “MPSIIDETVFGEPSRRLAVVYLCGALLLAGQQGYYVIIEGATPFYAGLLLSAGMALSGIAESLPKPRRRAAGVLRLTALVVLVSLLVILFVTPDLLTN” was “failed”; that for “MDNITFPSQGSLSSSNQTFDSQSAARNSNAPPEYVNQGLLLWNQTRERWVGKDKPNNPVDHNQGAKLNWNTATYDSLLGSNKLFPQPIPLTEMVDFLVDIWEQEGLYD” was “failed”. Regarding “MKTFHLTTQSRDEMVDITSQIETWIRETGVTNGVAIVSSLHTTAGITVNENADPDVKRDMIMRLDEVYPWHHENDRHMEGNTAAHLKTSTVGHAQTLIISEGRLVLGTWQGVYFCEFDGPRTNRKFVVKLLTD”, the protein production entry is given as “not failed”.
